Measured values from patent US20100129369A1 (Eli Lilly, published 2010).
Blank lines part the entries; values can stand above or below the binder they belong to.

Assays:
[1] = molecular target: T1, Human c-Met-Flis-Fc ECD (human); assay: ELISA, coated ECD-Fc, antibody 0.000 ng/mL
T1 construct: also called human c-Met extracellular domain (ECD)-Fc-Flis fusion; Human cMet-ECD-Fc-Flis
Method: (§1) Wells of 96-well EIA/RIA high binding plates (Costar, #2592) are coated with 100 μL of 1 μg/mL human c-Met extracellular domain (ECD)-Fc-Flis fusion (SEQ ID NO:72), RON-ECD-Fc (R&D Systems, #1947-MS), or PlexinA2-ECD-Fc (Abnova, Taipei, Taiwan #H00005362-P01) in coating buffer (BioFX Labs, # COAT-1000-01) overnight at 4° C. […] After the plates are washed, 100 μL/well of substrate solution (BioFx, #TMBW-1000-01) are added and the plates are incubated for 10 min. at room temperature. 100 μL/well of stop solution (BioFx, # LSTP-1000-01) are added to stop the reaction. The colorimetric signals are developed and read at 450 nm using a SpectraMax 190 plate reader (Molecular Devices, Sunnyvale, Calif.). c-Met antibody binding to c-Met, RON and PlexinA2 ECDs is proportional to color signal production.

[2] = molecular target: T1, Human c-Met-Flis-Fc ECD; assay: ELISA, coated ECD-Fc, antibody 0.002 ng/mL
Method: as §1

[3] = molecular target: T1, Human c-Met-Flis-Fc ECD; assay: ELISA, coated ECD-Fc, antibody 0.010 ng/mL
Method: as §1

[4] = molecular target: T1, Human c-Met-Flis-Fc ECD; assay: ELISA, coated ECD-Fc, antibody 0.060 ng/mL
Method: as §1

[5] = molecular target: T1, Human c-Met-Flis-Fc ECD; assay: ELISA, coated ECD-Fc, antibody 0.357 ng/mL
Method: as §1

[6] = molecular target: T1, Human c-Met-Flis-Fc ECD; assay: ELISA, coated ECD-Fc, antibody 2.143 ng/mL
Method: as §1

[7] = molecular target: T1, Human c-Met-Flis-Fc ECD; assay: ELISA, coated ECD-Fc, antibody 12.860 ng/mL
Method: as §1

[8] = molecular target: T1, Human c-Met-Flis-Fc ECD; assay: ELISA, coated ECD-Fc, antibody 77.160 ng/mL
Method: as §1

[9] = molecular target: T1, Human c-Met-Flis-Fc ECD; assay: ELISA, coated ECD-Fc, antibody 462.963 ng/mL
Method: as §1

[10] = molecular target: T1, Human c-Met-Flis-Fc ECD; assay: ELISA, coated ECD-Fc, antibody 2777.778 ng/mL
Method: as §1

[11] = molecular target: T1, Human c-Met-Flis-Fc ECD; assay: ELISA, coated ECD-Fc, antibody 16666.667 ng/mL
Method: as §1

[12] = molecular target: T1, Human c-Met-Flis-Fc ECD; assay: ELISA, coated ECD-Fc, antibody 100000.000 ng/mL
Method: as §1

[13] = molecular target: T1, Human c-Met-Flis-Fc ECD; assay: SPR Biacore, antibody captured, ECD-Fc analyte, 1:1 model
Method: (§2) A Biacore® 2000 instrument is used to measure the binding kinetics of c-Met antibodies to human, cynomolgus monkey, and rat c-Met ECDs. Measurements are performed at 25° C. Samples are dissolved in HBS-EP buffer (150 mM sodium chloride, 3 mM EDTA, 0.005% (w/v) surfactant P-20, and 10 mM N-2-hydroxyethylpiperazine-N′-2-ethanesulfonic acid (HEPES) at pH 7.4; #BR-1001-88).
(§3) Binding is evaluated using multiple cycles. Each cycle is performed at a flow rate of 50 μL/min., and consists of the following steps: injection of about 10 μL of a c-Met antibody at 10 μg/mL aiming at a capture of 40-100 RUs, injection of 250 μL of human, cynomolgus, or rat c-Met-Flis-Fc ECD (starting at 100 nM and using two-fold serial dilutions for each cycle) followed by 20 min. for dissociation, and regeneration using about 30 μL of 10 mM glycine hydrochloride, pH 1.5. Association and dissociation rates for each cycle are evaluated using a “1:1 (Langmuir) binding” model in the BIAevaluation software, version 4.1.

[14] = molecular target: T2, Cynomolgus Monkey c-Met-Flis-Fc ECD (cynomolgus monkey); assay: as above
T2 construct: also called Cynomolgus Monkey cMet-ECD-Fc-Flis; cynomolgus monkey c-Met ECD
Method: as §2, §3

[15] = molecular target: T3, Rat c-Met-Flis-Fc ECD (rat); assay: SPR Biacore, antibody captured, heterogeneous ligand model, first affinity
T3 construct: also called Rat cMet-ECD-Fc-Flis; rat c-Met ECD
Method: as §2
(§4) Binding is evaluated using multiple cycles. Each cycle is performed at a flow rate of 50 μL/min., and consists of the following steps: injection of about 10 μL of a c-Met antibody at 10 μg/mL aiming at a capture of 40-100 RUs, injection of 250 μL of human, cynomolgus, or rat c-Met-Flis-Fc ECD (starting at 100 nM and using two-fold serial dilutions for each cycle) followed by 20 min. for dissociation, and regeneration using about 30 μL of 10 mM glycine hydrochloride, pH 1.5. […]

[16] = molecular target: T3, Rat c-Met-Flis-Fc ECD; assay: SPR Biacore, antibody captured, heterogeneous ligand model, second affinity
Method: as §2, §4

[17] = molecular target: T4, human c-Met (human, UniProt P08581 25-1390); assay: cell-based or functional assay
[18] = molecular target: T4, human c-Met; assay: cell-based or functional assay; remark: listed apart in the source
[19] = molecular target: T4, human c-Met; assay: cell-based or functional assay; remark: listed apart in the source
[20] = molecular target: T4, human c-Met; assay: cell-based or functional assay; remark: listed apart in the source
[21] = molecular target: T4, human c-Met; assay: cell-based or functional assay; remark: listed apart in the source

T3 sequence (chain, as listed by the source limits assumed): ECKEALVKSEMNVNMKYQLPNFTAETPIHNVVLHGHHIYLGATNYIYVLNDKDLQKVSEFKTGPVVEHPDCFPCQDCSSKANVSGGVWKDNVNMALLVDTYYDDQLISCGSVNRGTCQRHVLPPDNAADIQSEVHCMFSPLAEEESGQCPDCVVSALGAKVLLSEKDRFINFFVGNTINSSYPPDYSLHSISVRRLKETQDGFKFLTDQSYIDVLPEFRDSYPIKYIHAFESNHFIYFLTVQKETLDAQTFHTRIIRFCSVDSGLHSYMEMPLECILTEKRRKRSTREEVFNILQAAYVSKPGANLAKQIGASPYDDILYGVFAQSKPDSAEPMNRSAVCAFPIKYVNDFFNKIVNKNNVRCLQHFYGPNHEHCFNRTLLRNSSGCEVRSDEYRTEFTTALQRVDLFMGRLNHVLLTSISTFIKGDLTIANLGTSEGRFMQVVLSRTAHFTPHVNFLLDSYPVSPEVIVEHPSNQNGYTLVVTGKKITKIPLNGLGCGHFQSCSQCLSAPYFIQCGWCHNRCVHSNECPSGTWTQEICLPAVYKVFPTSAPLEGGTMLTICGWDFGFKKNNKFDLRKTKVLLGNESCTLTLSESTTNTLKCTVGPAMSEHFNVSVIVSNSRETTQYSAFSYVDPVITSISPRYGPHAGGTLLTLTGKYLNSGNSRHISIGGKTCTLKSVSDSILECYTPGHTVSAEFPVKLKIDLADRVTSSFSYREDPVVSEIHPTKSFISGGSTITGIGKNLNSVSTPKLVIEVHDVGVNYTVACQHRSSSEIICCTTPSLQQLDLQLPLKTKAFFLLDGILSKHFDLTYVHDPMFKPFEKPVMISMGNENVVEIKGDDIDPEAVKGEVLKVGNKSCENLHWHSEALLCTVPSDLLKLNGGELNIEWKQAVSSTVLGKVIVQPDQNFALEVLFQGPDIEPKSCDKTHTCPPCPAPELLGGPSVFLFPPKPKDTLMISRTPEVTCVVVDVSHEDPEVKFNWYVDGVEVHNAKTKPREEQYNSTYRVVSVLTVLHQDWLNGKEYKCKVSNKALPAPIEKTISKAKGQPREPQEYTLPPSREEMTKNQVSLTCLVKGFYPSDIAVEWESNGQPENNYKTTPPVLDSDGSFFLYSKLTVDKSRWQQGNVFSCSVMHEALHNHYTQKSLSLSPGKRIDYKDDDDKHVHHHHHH
T2 sequence (chain, as listed by the source limits assumed): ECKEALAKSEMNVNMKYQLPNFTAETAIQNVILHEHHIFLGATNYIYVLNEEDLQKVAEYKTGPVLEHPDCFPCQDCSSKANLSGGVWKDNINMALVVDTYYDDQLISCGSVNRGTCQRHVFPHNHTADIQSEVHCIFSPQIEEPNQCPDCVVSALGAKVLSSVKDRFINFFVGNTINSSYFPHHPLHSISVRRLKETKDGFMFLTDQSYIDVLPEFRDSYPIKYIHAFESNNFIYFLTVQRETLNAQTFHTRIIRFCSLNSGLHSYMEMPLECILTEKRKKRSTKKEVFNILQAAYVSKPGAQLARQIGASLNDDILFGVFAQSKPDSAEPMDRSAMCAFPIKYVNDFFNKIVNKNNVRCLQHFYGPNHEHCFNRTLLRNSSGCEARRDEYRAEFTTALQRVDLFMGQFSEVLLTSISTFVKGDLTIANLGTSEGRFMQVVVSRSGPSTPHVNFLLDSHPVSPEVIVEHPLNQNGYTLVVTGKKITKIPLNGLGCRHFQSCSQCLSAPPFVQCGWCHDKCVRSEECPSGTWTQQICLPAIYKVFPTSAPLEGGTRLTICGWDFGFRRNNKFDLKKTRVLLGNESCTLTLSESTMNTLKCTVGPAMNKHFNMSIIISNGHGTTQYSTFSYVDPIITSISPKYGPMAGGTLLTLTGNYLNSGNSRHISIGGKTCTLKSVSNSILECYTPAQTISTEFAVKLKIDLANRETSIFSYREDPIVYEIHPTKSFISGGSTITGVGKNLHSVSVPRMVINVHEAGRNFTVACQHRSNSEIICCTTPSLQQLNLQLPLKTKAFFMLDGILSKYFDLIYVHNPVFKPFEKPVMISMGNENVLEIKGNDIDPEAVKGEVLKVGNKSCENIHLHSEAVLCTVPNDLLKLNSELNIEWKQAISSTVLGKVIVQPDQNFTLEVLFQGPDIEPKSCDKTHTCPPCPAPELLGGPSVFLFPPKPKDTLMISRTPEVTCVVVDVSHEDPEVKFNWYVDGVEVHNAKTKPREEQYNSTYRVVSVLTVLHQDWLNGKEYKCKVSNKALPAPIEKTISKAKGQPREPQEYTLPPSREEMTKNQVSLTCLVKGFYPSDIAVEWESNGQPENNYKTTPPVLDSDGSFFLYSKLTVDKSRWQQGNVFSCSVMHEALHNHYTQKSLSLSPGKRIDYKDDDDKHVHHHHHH
T1 sequence (chain, as listed by the source limits assumed): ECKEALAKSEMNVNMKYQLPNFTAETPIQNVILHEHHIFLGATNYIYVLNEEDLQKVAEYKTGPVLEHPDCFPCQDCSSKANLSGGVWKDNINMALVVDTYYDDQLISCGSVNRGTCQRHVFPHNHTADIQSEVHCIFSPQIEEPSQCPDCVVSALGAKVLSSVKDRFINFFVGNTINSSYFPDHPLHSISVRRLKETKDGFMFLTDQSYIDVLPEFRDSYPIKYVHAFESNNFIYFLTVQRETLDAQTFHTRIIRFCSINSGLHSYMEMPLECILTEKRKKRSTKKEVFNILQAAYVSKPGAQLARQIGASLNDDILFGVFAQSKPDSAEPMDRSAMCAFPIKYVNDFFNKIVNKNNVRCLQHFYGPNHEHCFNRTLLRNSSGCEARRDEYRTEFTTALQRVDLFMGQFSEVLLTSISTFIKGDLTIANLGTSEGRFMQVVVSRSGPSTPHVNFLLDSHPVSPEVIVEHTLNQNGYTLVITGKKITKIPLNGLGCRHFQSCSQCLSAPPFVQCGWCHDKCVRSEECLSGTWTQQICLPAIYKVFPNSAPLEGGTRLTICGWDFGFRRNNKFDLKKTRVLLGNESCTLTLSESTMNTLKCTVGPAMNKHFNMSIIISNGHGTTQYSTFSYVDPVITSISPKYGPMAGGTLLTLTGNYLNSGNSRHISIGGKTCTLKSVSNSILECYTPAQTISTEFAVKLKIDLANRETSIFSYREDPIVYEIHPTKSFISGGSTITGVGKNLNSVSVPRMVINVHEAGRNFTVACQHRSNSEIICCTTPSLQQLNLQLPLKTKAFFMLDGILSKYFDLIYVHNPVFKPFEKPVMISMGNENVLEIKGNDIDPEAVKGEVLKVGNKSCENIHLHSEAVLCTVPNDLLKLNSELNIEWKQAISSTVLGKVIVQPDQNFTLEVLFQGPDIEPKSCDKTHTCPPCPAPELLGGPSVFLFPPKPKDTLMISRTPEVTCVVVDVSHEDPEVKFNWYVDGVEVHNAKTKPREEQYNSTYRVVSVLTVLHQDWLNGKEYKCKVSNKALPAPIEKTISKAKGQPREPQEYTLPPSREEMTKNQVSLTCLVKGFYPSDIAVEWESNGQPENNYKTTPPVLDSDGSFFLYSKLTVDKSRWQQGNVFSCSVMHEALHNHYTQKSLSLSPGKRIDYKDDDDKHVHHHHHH
T4 sequence (P08581 25-1390): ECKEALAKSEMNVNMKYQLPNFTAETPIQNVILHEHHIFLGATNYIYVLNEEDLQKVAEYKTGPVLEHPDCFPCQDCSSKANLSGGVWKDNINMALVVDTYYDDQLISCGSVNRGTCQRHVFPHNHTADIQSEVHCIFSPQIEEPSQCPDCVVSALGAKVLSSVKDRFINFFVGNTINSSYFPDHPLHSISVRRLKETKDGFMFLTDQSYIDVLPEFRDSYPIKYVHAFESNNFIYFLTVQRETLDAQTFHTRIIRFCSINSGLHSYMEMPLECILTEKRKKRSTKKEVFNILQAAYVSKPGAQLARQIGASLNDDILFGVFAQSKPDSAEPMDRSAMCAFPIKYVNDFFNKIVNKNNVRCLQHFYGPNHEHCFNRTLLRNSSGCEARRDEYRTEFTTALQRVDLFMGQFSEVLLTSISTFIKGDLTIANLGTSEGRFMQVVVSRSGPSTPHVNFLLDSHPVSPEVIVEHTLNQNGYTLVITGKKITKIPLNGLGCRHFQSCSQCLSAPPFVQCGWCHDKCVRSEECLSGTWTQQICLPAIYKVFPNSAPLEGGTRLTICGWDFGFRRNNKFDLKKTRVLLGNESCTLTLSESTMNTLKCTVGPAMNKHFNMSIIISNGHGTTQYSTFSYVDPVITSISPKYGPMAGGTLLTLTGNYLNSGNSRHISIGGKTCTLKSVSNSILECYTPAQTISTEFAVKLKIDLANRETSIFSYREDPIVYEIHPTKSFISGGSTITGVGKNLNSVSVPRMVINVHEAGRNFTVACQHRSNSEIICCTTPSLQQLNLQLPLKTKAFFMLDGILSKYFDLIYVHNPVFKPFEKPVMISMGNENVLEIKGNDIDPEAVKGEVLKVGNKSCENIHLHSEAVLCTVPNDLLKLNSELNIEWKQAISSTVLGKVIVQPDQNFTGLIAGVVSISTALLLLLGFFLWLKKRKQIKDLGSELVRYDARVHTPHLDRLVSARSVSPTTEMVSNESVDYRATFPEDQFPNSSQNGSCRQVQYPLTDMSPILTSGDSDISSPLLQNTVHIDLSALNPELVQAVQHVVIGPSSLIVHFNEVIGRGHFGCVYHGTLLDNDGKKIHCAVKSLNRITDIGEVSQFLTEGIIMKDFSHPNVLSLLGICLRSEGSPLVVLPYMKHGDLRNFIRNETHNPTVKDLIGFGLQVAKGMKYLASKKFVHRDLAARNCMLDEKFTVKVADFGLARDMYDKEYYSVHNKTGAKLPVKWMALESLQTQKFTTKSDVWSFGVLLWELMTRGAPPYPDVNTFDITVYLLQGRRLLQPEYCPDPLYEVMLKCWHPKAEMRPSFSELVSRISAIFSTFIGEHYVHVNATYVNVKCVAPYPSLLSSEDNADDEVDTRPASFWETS

Average A450 nm [1]: 0.315 A450 nm
Average A450 nm [2]: 0.309 A450 nm
Average A450 nm [3]: 0.314 A450 nm
Average A450 nm [4]: 0.374 A450 nm
Average A450 nm [5]: 0.789 A450 nm
Average A450 nm [6]: 2.14 A450 nm
Average A450 nm [7]: 4 A450 nm
Average A450 nm [8]: 4 A450 nm
Average A450 nm [9]: 4 A450 nm
Average A450 nm [10]: 4 A450 nm
Average A450 nm [11]: 4 A450 nm
Average A450 nm [12]: 4 A450 nm
Kd [13]: 4.2 nM
koff [13]: 0.00028 s⁻¹
kon [13]: 70000 M⁻¹ s⁻¹
Kd [14]: 5.1 nM
koff [14]: 0.00036 s⁻¹
kon [14]: 70000 M⁻¹ s⁻¹
Kd [15]: 286 nM
koff [15]: 0.0189 s⁻¹
kon [15]: 66000 M⁻¹ s⁻¹
Kd [16]: 1.2 nM
koff [16]: 0.0003 s⁻¹
kon [16]: 250000 M⁻¹ s⁻¹
B1: D11-S17Y (antibody, human IgG2, kappa, V domains shown)
VH: QVQLVQSGAEVKKPGSSVKVSCKASGYTFTSRYIHWVRQAPGQGLEWMGWIYPVTGDTYYNEKFKGRVTITADKSTSTAYMELSSLRSEDTAVYYCARGYGAFYYWGQGTLVTVSS
VL: EIVLTQSPGTLSLSPGERATLSCSVSSSISSTNLHWYQQKPGQAPRLLIYGTSYLASGIPDRFSGSGSGTDFTLTISRLEPEDFAVYYCQQWSSYPYSFGQGTKLEIKR
notes: Human engineered IgG2, kappa

3H-Thymidine Incorporation in Caki-1 Cells in the Absence of HGF (AVG CPM), antibody dose 0.1 ng/mL [17]: 16100 CPM
3H-Thymidine Incorporation in Caki-1 Cells in the Absence of HGF (AVG CPM), antibody dose 0.4 ng/mL [17]: 14600 CPM
3H-Thymidine Incorporation in Caki-1 Cells in the Absence of HGF (AVG CPM), antibody dose 2.6 ng/mL [17]: 14100 CPM
3H-Thymidine Incorporation in Caki-1 Cells in the Absence of HGF (AVG CPM), antibody dose 15.4 ng/mL [17]: 13700 CPM
3H-Thymidine Incorporation in Caki-1 Cells in the Absence of HGF (AVG CPM), antibody dose 92.6 ng/mL [17]: 12800 CPM
3H-Thymidine Incorporation in Caki-1 Cells in the Absence of HGF (AVG CPM), antibody dose 555.6 ng/mL [17]: 13500 CPM
3H-Thymidine Incorporation in Caki-1 Cells in the Absence of HGF (AVG CPM), antibody dose 3333.3 ng/mL [17]: 13200 CPM
3H-Thymidine Incorporation in Caki-1 Cells in the Absence of HGF (AVG CPM), antibody dose 20000.0 ng/mL [17]: 13200 CPM
3H-Thymidine Incorporation in Primary Human Hepatocytes in the Absence of HGF (average), dose 0.0032 ug/mL [18]: 736
3H-Thymidine Incorporation in Primary Human Hepatocytes in the Absence of HGF (average), dose 0.016 ug/mL [18]: 770
3H-Thymidine Incorporation in Primary Human Hepatocytes in the Absence of HGF (average), dose 0.08 ug/mL [18]: 792
3H-Thymidine Incorporation in Primary Human Hepatocytes in the Absence of HGF (average), dose 0.4 ug/mL [18]: 802
3H-Thymidine Incorporation in Primary Human Hepatocytes in the Absence of HGF (average), dose 2 ug/mL [18]: 892
3H-Thymidine Incorporation in Primary Human Hepatocytes in the Absence of HGF (average), dose 10 ug/mL [18]: 1040
Tubular Morphogenesis Agonist activity (fold stimulation) in HepG2 cells, antibody 50 ug/ml [19]: 1.2 fold stimulation
Percent of DU145 Cells in Colonies (scatter assay), antibody 20 ug/mL [20]: 23.3%
Staurosporine-Induced Apoptosis in Caki-1 Cells, Average A450 nm, antibody dose 3 ng/mL [21]: 1.09 A450 nm
Staurosporine-Induced Apoptosis in Caki-1 Cells, Average A450 nm, antibody dose 30 ng/mL [21]: 1.02 A450 nm
Staurosporine-Induced Apoptosis in Caki-1 Cells, Average A450 nm, antibody dose 300 ng/mL [21]: 0.97 A450 nm
Staurosporine-Induced Apoptosis in Caki-1 Cells, Average A450 nm, antibody dose 3000 ng/mL [21]: 0.92 A450 nm
Staurosporine-Induced Apoptosis in Caki-1 Cells, Average A450 nm, antibody dose 30000 ng/mL [21]: 0.96 A450 nm
B2: C8-6 (antibody, human IgG2, kappa, V domains shown)
VH: QVQLVQSGAEVKKPGASVKVSCKASGYTFTDYYMHWVRQAPGQGLEWMGRVNPNRGGTTYNQKFEGRVTMTTDTSTSTAYMELRSLRSDDTAVYYCARTNWLDYWGQGTTVTVSS
VL: DIQMTQSPSSLSASVGDRVTITCSVSSSVSSIYLHWYQQKPGKAPKLLIYSTSNLASGVPSRFSGSGSGTDFTLTISSLQPEDFATYYCIQYSGYPLTFGGGTKVEIKR
